# Laboratory results taken from the nanobody polyreactivity screen of Harvey et al. (2022).
# Experiment: yeast display, Sf9 membrane polyspecificity reagent, FACS + sequencing; frameworks hold sequencing errors
# In short: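 Nanobodies came from a synthetic yeast display library in Saccharomyces cerevisiae BJ5465, induced with galactose for 36–48 hours and stained for 1 hour at 4 °C with 10% biotinylated, detergent-solubilized Sf9 membrane reagent. Cells were enriched on streptavidin microbeads and then FACS-sorted, with low and high (top ~1%) gates set on anti-HA fluorescence for expression and streptavidin fluorescence for reagent binding. Each polyreactivity label reflects the gate a clone came from. Genes were amplified by colony PCR, sequenced by MiSeq 2 × 250 and filtered by CDR length.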
row,Sequence,polyreactivity (PSR sort gate)
1,QVQLVESGGGLVQAGGSLRLSCASSGRIFLVYAMGWYRQAPGKERELVAAISYSGGRTYYADSVKGRFTISRDNAKNTVYLQMNSLKPEDTAVYYCAAKRITYYGGGRFYYWGQGTQVTVSS,high polyreactivity
2,QVQLVESGGGLVQAGGSLRLSCAASGSIYWYAMGWYTQAPGKERELVAAITKSGSSTYYADSVKGRFTISRDNANNTVYLQMNSLIPEDTAVYYCAARRAVSGGVRMYYWGQGTQVTVSS,high polyreactivity
3,QVQLVESGGGLVQAGGSLRLSCAASGRIFTGNAMGWYRQAPGKERELVAAISSRGGRTYYADSVKGRFTISRDNAKNTVYLQMNSLKPEDTAVYYCNAVAVAASRAYSWYDYWGQGTQVTVSS,high polyreactivity
4,QVQLVESGGGLVQAGGSLRLSCAASGSTFGLYAMGWYRQAPGKERELVAAISSGGRTNYADSVKGRFTISRDNAKNTVYLQMNSLKPEDTAVYYCASAYIRGSRRYDYWGQGTQVTVSS,high polyreactivity
5,QVQLVESGGGLVQAGGSLRLSCAANTMGCYRQAPGKERELVAAINTGSSTYYADSVKGRFRISRDNAKNTVYLQMYCLKPEDTAVYYCNASYPPYFEYRTRQYNYWGQGTQVTVSS,low polyreactivity
6,QDQHVESVGGLVQAGGSLRLSIAASVLILWQNAMGWYRQAPGKERELVARITWSGVSTDYADSVKGRFTISRDNAKNTVYFQMNSLKPEDTADYYWAADYNRYSYNYARYSLGQNDYWGQGTQVTVSS,low polyreactivity
7,QVQLVESGGGLVQAGGSLRLSCAASGFTFGVYAMGWYRQAPGKERDLVAAISTTVGSTYYADSVKGRFTISRDNAKNTVYLQMNSLKPEDTAVDYCAAEYTGYINYYIYEYWGQGTQVTVSS,low polyreactivity
8,QVQLVESGGGLVQAGGSLRLSCAASGITFRYYTMGWYRQAPGKERELVAVISWSGGSTYYADSVKGRFTISRDNGKNTVYLQMNSLKPEDTAVYYCAAVRRISRYDYWGQGTQVTVSS,high polyreactivity
9,QVQLVESGGGLVQAGGSLRLSCAASGSIFYPYAMGWYRQAPGKERELVAAITWSGGETYYADSVKGRFTISRDNAKNTVYLQMNSLKPEDTAVYYCAAEWNVSPYDYWGQGTQVTVSS,low polyreactivity
10,QVQLVESGGGLVQAGGSLRLSCASSGLISRRNAMGWYRQAPGKERELVAAISTGSSTNYADSVKGRFTISRDNAKNTVYLQMNSLKPEDTAVYYCAATQYWWSTLGIRDDYWGQGTQVTVSS,low polyreactivity
11,QVQLVESGGGLVQAGGSLSLSCAASGTFSPYAMGWYRQAPGKERELVADITSNTGRTYAASVKGRFTISRDNAKNTVYLQMNSLKPEDTAVYYCNTYGSGTHSTGYDYWGQGTQVTVSS,low polyreactivity
12,QVQLVESGGGLVQAGGSLRLSCAASVSTVSYNAMGWYRQAPGKERELVAAISGSGGTTYYADSVKGRFTISRDNAKNTVYLQMNSLKPEDTAVYYCAARPFRSWRYDYWGQGTQVTVSS,low polyreactivity
13,QVQLVESGGGLVQPGGSLRLSGAASGRILTYYAMGWYRQAPGKERELFAAISWRAGSTYYADSVKGRFTISRDNAKNTVYLQMNSLKPEDTAVYYCAAKPYYIPTRTYSHYNYWGQGTLVTVSS,high polyreactivity
14,QVQLVESGGGLVQAGGSLRLSCAASGSIFYRNTMGWYRQAPGKERELVASINTGTGTYYADSVKGRFTISRDNAKNTVYLQMNSLKPEDTAVYYCNAKGWVWPFPSYYPYDSWGQGTQVTVSS,high polyreactivity
15,QVQLVESGGGLVQAGGSLRLSCAASGRTLGRNAMGWYRHAPGKERELVARISYSGGRTYYADSVKGRFTISRDNAKNTVYLQMNSLKPEDTAVYYCATLGIVHQYDYWGQGTQVTVSS,low polyreactivity
16,QVQLVESGGGLVQAGGSLRLSCAASGRIFLRNAMGWYRQAPGKERELVATITSRGGSTYYADSVRGRFTISRDNAKNTVYLQMNSLKPEDTAVYYCAAKVAWGHWRGYDYWGQGTQVTVSS,low polyreactivity
17,QVQLVESGGGLVQAGGSLRLSCAASGFIFYRYAMGWYRQAPGKERELVAAISSSGGSTYYADSVKGRFTISRDNAKNTVYLQMNSLKPEDTAVYYCNKRPQQYSPGYDYWGQGTQVTVSS,high polyreactivity
18,QVQLVESGGGLVQAGGSLRLSCAASGSTFDYYTMGWYRQAPGKERELVAAISYSGSRTYYADSVKGRFTISRDNAKNTVYLQMNSLKPEDTAVYYCARVASSVWYKQEYSYYNFDYWGQGTQVTVSS,high polyreactivity
19,QVQLVESGGGLVQAGGSLRLSCAASGSTFRYYAMGWYRQAPGKERELVATISSGGSTNYADSVKGRFTISRDNAKNTVYLQMNSLKPEDTAVYYCAAAYPQFWYWDYNYWGQGTQVTVSS,high polyreactivity
20,QVQLVESGGGLVQAGGSLRLSCAASGIIISYYTMGWYRQAPGKERELVAAITGSGGSTYYADSVKGRFTISRDNAKNTVYLQMNSLKPEDTAVYYCAADPSLRQYAYFDYYYWGQGTQVTVSS,low polyreactivity
21,QVQLVESGGGLLQAGGSLRFSWAASGFIFIINPMGWYRQAPGKERELVAGIRWSGGYKYYADSVKGRFTISRDNEKNTVYLQINSLKPEDTAVYYCNKDRGSLTLYTYDYWGQVTQVTVSS,low polyreactivity
22,QVQLVESGGGLVQAGGSLRLSCAASGSIFGYNVMGWYRQAPGKEWELVAAITYSGGSTYYADSVKGRFTISRDNAKNTVYLQMNSLKPEDTAVFYCNAVTLRRIYSNPEYDSWGQGTQVSVSS,high polyreactivity

row,Sequence,polyreactivity (PSR sort gate)
1,QVQLVESGGGLVQAGASLRLSCAASGLIFVSNAMGWYRQAPGKERELVAAISWSGSRTYYADSVKGRFTISRDNAKINVYLHMTSLKPEDTAVFYCNAVRRGLPVVGAYDYWGQGTQVTVSS,high polyreactivity
2,QVQLVESGGGLVQAGGSLRLSCAASGFIFRTNAMGRYRQAPGKEREFVAAIRWSGGSTYYADSVKGRFTISRDNAKKTVYLQMNSLKPEDTAVYYCAAEIYLSTYFYPHSIYDYWGQGTQVTVSS,high polyreactivity
3,QVQLVESGGGLVQAGGSLRLSCAASGFIFDYYGMGWYRQAPGKERELVAAITRGGSTYYADSVKGRFTISRDNAKNTVYLQMNSLKPEDTAFYYCAAKYVSQGYDYWGQGTQVTVSS,high polyreactivity
4,QVQLVESGGGLVQAGGSLRLSCAASGRIFYGYAMGWYRQAPGKERELVAAITYSGGITYYADSVKGRFTISRDNAKNTVYLQMNSLKPEDTAVYYCATSKSSVTGPDLDYWGQGTQVTVSS,high polyreactivity
5,QVQLVESGGGLVQAGGSLRLSCAASGFIFTYYVMGWYRQAPGKERELVATISISDGTTYADSVKGRFTISRDNAKNTVYLQMNSLKPEDTAVYYCAKYFTTYKYDYWGQGTQVTVSS,low polyreactivity
6,QVQVVESGGGLVQAGGSLRLSCAASGSTFGHNAMGWYRQAPGKERELVAAIDSGDGTTYADSVKGRFTISRDNAKNTVYLQMNSLKPEDTAVYYCNADGLGGADPEYLWYPVPDYDYWGQGTQVTVSS,low polyreactivity
7,QVQLVESGGGLVQAGGSLRLSCAASGRTFYKYVMGWYRQAPGKERELVAAITRSGGGTYYADSVKGRFTISRDNAKNTVYLQMNSLKPEDTAVYYCAVSGRSYYRSDYWGQGTQVTVSS,high polyreactivity
8,QVQLAESGGGLVQAGGSLRLICAASGFTFSAYAMGWYRQAPGKERELVAAINTSGGSTYYADSVKGRFTISRDNAKNTVYLQMKSLKPEDTAVYYCASKYASLDRRRRKYDYWGQGTQVTVSS,high polyreactivity
9,QVQLVESGGGLVQAGGSLRLTCAASGRILVSYSMGWYRQAPGKERELVAAISRSGGSTYYADSVKGRFTISRDNAKNTVYLQMNSLKPEDTAVYYWNVYRFSRYDYWGQGTQVTVSS,high polyreactivity
10,QVQLVESGGGLVQAGGSLRLSCAASGRIFSSYAMGWYRQAPWKERELVAAISGSGGRTYYADSVKGRFTISRDNAKNTVYLQMNSLKPEDTAVYYCNARRRSPYSTGVAYDYWGQGTQVTVSS,high polyreactivity
11,QEQLQESGGGMVQVGGTLRLSCAATGTIFIYGFLGWNRQAPGKERELVASINLGGITNYADSVKGRFTISRDNAKNTVYLQMISLKPEDTAVYYCAAYLVTGQNYGYWGQGTQVTVSS,low polyreactivity
12,QVQLVDSGGGLVQAGGRLRLSSAPTGSTFYVYLMGGYRQAHGKERELVAVIDWLGGSTYYADSVKGRFTISRDNAKNTVYLQLNSLKPEDTAVYYCYKDAQFYYNLPYYKERDWGQGTQVTVSS,low polyreactivity
13,QVQLVESGGGLVQAGGSLRLSCAASGSIFAYYAMGWYRQAPGKERELVAAISRRGGSTYYADSVKGRFTISRDNAKNTVYLQMNSLKPEDTAVYYCAARRSTQYKTGVDSWGQGTQVTVSS,high polyreactivity
14,QVQLVESGGGLVQAGGSLRLSCAASGRTIRFNAMGWYRQAQGKESELVAAISFSGGNTYYADSVKGRFTISRDNAKNTVYIQMNSLKPDDTAVYYCAARFTYRYYNYLKYDYWGKGTQVTVSS,high polyreactivity
15,QVQLVESGGGLVQAGGSLRLSCAASGSIFHIYAIGWYRQAPGKERELVAAISWRGDSTSYADSVKGRFTISRDNAKNTVYLQMNSLKPEDTAVYYCARGYGGYRGYYAKRFGYWGQGTQVTVSS,high polyreactivity
16,QVQLVESGGGLVQAGGRLRLSCAASGSIFVYNALGWYRQAPGKQRELVAGITFIGGSTYYAESVKGRFTISRDNAKNTVYVQMNSRKPEDTAVYYCNKFPVSPPSYYWGQGTQVTVSS,low polyreactivity
17,QVQLVESGGGLVQAGGSLRLSCAASGSTFTRNAMGWYRQAPGKERELVATISRSGGSTYYADSVKGRFTISRDNAKNTVYLQMNSLKPEDTAVYYCARPYQYYKFYSHDYWGQGTQVTVSS,high polyreactivity
18,QVQLVESGGGLVQAGGSLRLSCAASGSTFGYYTMGWYRQAPGKERELVAAITWSGGSTYYADSVKGRFTISRDNAKNTVFLQMNSLKPEDTAVYYCAAEDYWTPFGYWGQGTQVTVSS,low polyreactivity
19,QDQLVESGGGLVQAGGSLRLSCAASGRTFDRNAMGWYRQAPGKERELVARITIDGSTNYADSVKGRFTISRDNAKNTVYLQMNSLKPEDTAVYYCATDQLSLSWYFRPYDYGYWGQGTQVTVSS,high polyreactivity
20,QVQLVESGGGLLQAGGSLRLSCAASGSIFTYYAMGWYRQAPGKEREFVAAINYGGGSTYYADSVKGRFTISRDNAKNTVYLQMNSQKPEDTAVYYCNARTFGPNGKHRYGYWGQGTQVSVSS,high polyreactivity
21,QVQLVESGGGLVQAGGSLRLSCAASGSIFTTYAMGWYIQAPGKERELVAVISRRGGSTYYADSVKGRFTISRDNAKNTDYLQMNSLKPEDTAVYFCNAAYVWYRIFVRRDYWGQGTQVTVSS,high polyreactivity
